Tests used:
[1] = target: T1, recombinant human FGFR3 IIIb Fc fusion protein (human, UniProt P22607-2 23-377, limits assumed); experiment: ECL competition assay: inhibition of rhFGFR3 IIIb Fc binding to coated FGF1 (competitor FGF1)
T1 construct: Bought reagent; the IIIb splice isoform is meant; also called rhFGFR3 IIIb Fc; hFGFR3 IIIb; not shown: Fc fragment (removable by Factor Xa, detected with anti-human IgG)
T1 sequence (looked up): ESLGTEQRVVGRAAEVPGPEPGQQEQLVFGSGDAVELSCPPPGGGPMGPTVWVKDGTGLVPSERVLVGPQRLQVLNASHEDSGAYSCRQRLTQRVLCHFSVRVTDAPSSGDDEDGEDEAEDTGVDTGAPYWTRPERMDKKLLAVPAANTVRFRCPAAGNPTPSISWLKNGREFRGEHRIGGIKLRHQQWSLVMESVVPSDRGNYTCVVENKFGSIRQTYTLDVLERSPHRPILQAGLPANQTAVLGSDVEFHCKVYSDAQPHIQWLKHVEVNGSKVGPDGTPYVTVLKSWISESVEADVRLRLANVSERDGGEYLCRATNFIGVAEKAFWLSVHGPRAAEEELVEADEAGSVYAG
Protocol: The antibodies were tested by ECL (Electrochemiluminescence) assay for inhibition of hFGFR3 IIIB binding to FGF-1. […] The plates then were washed 3 times with PBS and blocked with 200 μl of PBS containing 5% BSA (Sera Care Life Sciences, Catalog No. AP-4510-80) and 5 μg/mL heparin (Sigma, Catalog No. H4784) for 1 hour at room temperature. The antibodies (concentration range: 0.029-30 μg/mL) were incubated for 1 hour at room temperature with 1.7 μg/mL rhFGFR3 IIIb Fc (R&D Systems, Catalog No. 1264-FR-050) and 5 μg/mL heparin. After washing the plates 3 times with PBS, 25 μl of the antibody-receptor mixture was added to the plates for another hour at room temperature with agitation. The plates were washed three times with PBS and incubated with 25 μl of 1 μg/mL ST-anti-human IgG antibody (Meso Scale Discovery, Catalog No. R32AJ-1) for 1 hour at room temperature with agitation. The plates then were washed 3 times with PBS, and 150 μl of 1× read buffer (Meso Scale Discovery, Catalog No. R92TC-1) was added to each well before the plates were analyzed on a Sector Imager 2400 (Meso Scale Discovery) instrument.

[2] = target: T1, recombinant human FGFR3 IIIb Fc fusion …; experiment: SPR (Biacore T100), antibody captured on anti-mouse Ig, rhFGFR3 IIIb Fc as analyte, 37 C
Protocol: The binding affinities and kinetics of interaction of the monoclonal antibodies (15D8, 27H2, 2G4, and 4E7(7D12)) produced in Example 1 against recombinant human FGFR3 (IIIb and IIIc isoforms) Fc fusion protein (rhFGFR3 IIIb Fc or rhFGFR3 IIIc Fc) were measured by surface plasmon resonance using a Biacore™ T100 (Biacore) instrument.
Rabbit anti-mouse immunoglobulins (Biacore, Catalog No. BR-1005-14) were immobilized on carboxymethylated dextran CM4 sensor chips (Biacore, Catalog No. BR-1005-34) by amine coupling (Biacore, Catalog No. BR-1000-50) using a standard coupling protocol according to manufacturer's instructions.
The antibodies were captured in an individual flow cell at a flow rate of 10 μl/min. Injection time was varied for each antibody to yield approximately 40-50 RU of antibody captured for each cycle. Buffer or rhFGFR3 IIIb Fc (R&D Systems, Catalog No. 1264-FR-050) or rhFGFR3 IIIc Fc (R&D Systems, Catalog No. 766-FR-050) diluted in running buffer was injected sequentially over a reference surface (no antibody captured) and the active surface (antibody to be tested) for 300 sec at 60 μl/min. The dissociation phase was monitored for 30 minutes. The surface was then regenerated with two 60-seconds injection of 10 mM Glycine-HCl, pH 1.7 (made from Glycine pH 1.5 (Biacore, Catalog No. BR-1003-54) and pH 2.0 (Biacore, Catalog No. BR-1003-55)) at a flow rate of 60 μl/min. rhFGFR3 Fc concentrations tested were 0.62 nM to 40 nM.

B1: anti-FGFR3 monoclonal antibody 15D8 (antibody, mouse IgG1, kappa)
heavy: EIQLQQSGPELVKPGASVKVSCKASGYAFTSYNMYWVKQSHGKSLEWIGYIDPYNGGTSYNQKFKGKATLTVDKSSSTAYMHLNSLTSEDSAVYYCAREGGNYEAWFAYWGQGTLVTVSAAKTTPPSVYPLAPGSAAQTNSMVTLGCLVKGYFPEPVTVTWNSGSLSSGVHTFPAVLQSDLYTLSSSVTVPSSTWPSETVTCNVAHPASSTKVDKKIVPRDCGCKPCICTVPEVSSVFIFPPKPKDVLTITLTPKVTCVVVDISKDDPEVQFSWFVDDVEVHTAQTQPREEQFNSTFRSVSELPIMHQDWLNGKEFKCRVNSAAFPAPIEKTISKTKGRPKAPQVYTIPPPKEQMAKDKVSLTCMITDFFPEDITVEWQWNGQPAENYKNTQPIMDTDGSYFVYSKLNVQKSNWEAGNTFTCSVLHEGLHNHHTEKSLSHSPGK
light: QIVLTQSPALMSASPGEKVTMTCSASSSVSYMYWYQQKPRSSPKPWIYLTSYLASGVPARFSGSGSGTSYSLTISSMEAEDAATYYCQQWSSYPLTFGAGTKLELKRADAAPTVSIFPPSSEQLTSGGASVVCFLNNFYPKDINVKWKIDGSERQNGVLNSWTDQDSKDSTYSMSSTLTLTKDEYERHNSYTCEATHKTSTSPIVKSFNRNEC
notes: also called 15D8 IgG1; murine antibody 15D8
Maximum Neutralization (%) [1]: 80.5% | Kd [2]: 3.2 nM | koff [2]: 0.0003 s⁻¹ | kon [2]: 94000 M⁻¹ s⁻¹
